Test system: hES cells
Experiment: GCTM-2 quantification (alkaline phosphatase-coupled secondary antibody, OD 405 nm)
Format: cell-based, human
Excerpt: hES-3 cells plated with MEF, were fixed in ethanol and immunostained with GCTM-2 and then with an alkaline phosphatase-coupled secondary antibody (Dako). The activity of alkaline phosphatase was detected by adding a solution of 4-nitrophenyl phosphate (Roche, Mannheim, Germany), followed by reading the optical density (OD) at 405 nm. In order to validate the technique as a relevant indicator of the proportion of GCTM-2 positive cells, standard curves were done with the teratocarcinoma cell line GCT27C4, known to express GCTM-2.
Cells were fixed in 100% ethanol and immunostained with GCTM-2 followed by alkaline phosphatase-coupled secondary antibodies (Dako). Alkaline phosphatase activity was detected by adding a solution of 4-nitrophenyl phosphate (Roche), and the concentration of the reaction product was determined by reading the optical density (OD) at 405 nm. In order to validate the technique as an accurate indicator of the proportion of GCTM-2 positive cells, standard curves were carried out with the embryonal carcinoma cell line GCT27C4, known to express GCTM-2 ^20.

B1: PDGF-BB: Human platelet-derived growth factor isoform BB (protein, UniProt P01127 82-190, looked up)
Platelet-derived growth …: SLGSLTIAEPAMIAECKTRTEVFEISRRLIDRTNANFLVWPPCVEVQRCSGCCNNRNVQCRPTQVQLRPVQVRKIEIVRKKPIFKKATVTLEDHLACKCETVAAARPVT
GCTM2 levels, PDGF isoform added with S1P (Example 1, isoform added with S1P): 182.0±26.0 % of control
GCTM2 expression, PDGF isoform with S1P (Example 2, 2 weeks, isoform 20 ng/ml together with S1P): 294.3±77.3 % of control
